How the values were obtained:
[1] = target: purified recombinant soluble polyhistidine-tagged G glycoprotein (respiratory syncytial virus) (UniProt P03423); assay: flow cytometry, GHIS on CX3CR1-293 cells with control antibody (68% without)
[2] = target: CX3CR1 on Vero cells (African green monkey); assay: cell-based or functional assay
[3] = target: CX3CR1 on naive mouse spleen leukocytes (mouse) (UniProt Q9Z0D9); assay: cell-based or functional assay
[4] = target: purified recombinant soluble polyhistidine-tagged G glycoprotein (respiratory syncytial virus) (UniProt P03423); assay: flow cytometry; inhibition of polyhistidine-tagged G glycoprotein binding to 293-CX3CR1 cells
[5] = target: RSV G glycoprotein, purified from RSV/A2-infected Vero cells (respiratory syncytial virus, A2 strain) (UniProt P03423); assay: flow cytometry; inhibition of G glycoprotein binding to 293-CX3CR1 cells, in the absence of heparin
[6] = target: RSV G glycoprotein, purified from RSV/A2-infected Vero cells (respiratory syncytial virus, A2 strain) (UniProt P03423); assay: cell-based or functional assay
[7] = target: T1, mouse Fkn (mouse) (UniProt O35188); assay: cell-based or functional assay
T1 sequence (looked up): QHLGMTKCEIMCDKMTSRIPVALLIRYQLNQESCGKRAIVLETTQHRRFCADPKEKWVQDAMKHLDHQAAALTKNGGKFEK

[8] = target: purified recombinant soluble polyhistidine-tagged G glycoprotein (respiratory syncytial virus) (UniProt P03423); assay: flow cytometry, GHIS on CX3CR1-293 cells with antibody (68% without)
[9] = target: T2, CX3CR1 on CX3CR1-transfected human embryonic kidney cells (293-CX3CR1 cells) (UniProt P49238 1-355); assay: Scatchard analysis; displacement of 1 nM 125I-fractalkine from 293-CX3CR1 cells by unlabeled Fkn, 2 h 37°C with azide; mean±SD of three experiments
T2 construct: whole, on cells; also called CX3C receptor; CX3CR1-293 cells
T2 sequence (looked up): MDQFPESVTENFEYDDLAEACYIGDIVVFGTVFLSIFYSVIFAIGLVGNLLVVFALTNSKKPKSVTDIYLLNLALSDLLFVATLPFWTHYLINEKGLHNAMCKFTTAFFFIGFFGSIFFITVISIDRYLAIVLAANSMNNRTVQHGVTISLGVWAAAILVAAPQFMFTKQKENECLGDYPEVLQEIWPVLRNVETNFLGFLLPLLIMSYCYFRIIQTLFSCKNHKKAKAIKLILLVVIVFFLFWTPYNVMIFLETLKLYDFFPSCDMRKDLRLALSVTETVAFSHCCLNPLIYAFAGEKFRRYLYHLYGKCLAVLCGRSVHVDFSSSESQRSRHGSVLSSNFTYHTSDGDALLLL

[10] = target: T2, CX3CR1 on CX3CR1-transfected human …; assay: flow cytometry, G glycoprotein on CX3CR1-293 cells with competitor peptide (84% without)
[11] = target: T2, CX3CR1 on CX3CR1-transfected human …; assay: Scatchard analysis; displacement of 1 nM 125I-fractalkine from 293-CX3CR1 cells by unlabeled G glycoprotein, 2 h 37°C with azide; mean±SD of three experiments
[12] = target: T2, CX3CR1 on CX3CR1-transfected human …; assay: inhibition of G glycoprotein binding to CX3CR1, methods described in the examples (no further detail)

Chain of CX3CR1 on naive mouse spleen leukocytes (mouse) (Q9Z0D9 whole entry): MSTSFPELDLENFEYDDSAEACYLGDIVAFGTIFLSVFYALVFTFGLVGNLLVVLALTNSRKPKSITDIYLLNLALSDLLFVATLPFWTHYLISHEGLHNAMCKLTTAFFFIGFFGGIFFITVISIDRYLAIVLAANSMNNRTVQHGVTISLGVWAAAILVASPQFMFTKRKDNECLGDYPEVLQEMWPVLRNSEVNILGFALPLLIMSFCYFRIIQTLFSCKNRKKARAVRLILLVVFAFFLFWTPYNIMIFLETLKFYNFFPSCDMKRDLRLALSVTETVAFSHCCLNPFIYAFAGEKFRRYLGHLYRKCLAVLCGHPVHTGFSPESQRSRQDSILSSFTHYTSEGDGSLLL

“anti-F glycoprotein monoclonal antibody 131-2A” showed a percent positive staining of GHIS in the presence of the antibody [1] of 60%.

Work on normal rabbit sera yielded an RSV plaque inhibition (%) on Vero cells; Normal rabbit sera (control) [2] of 6%.

Molecule “mouse Fkn (from UniProt O35188 25-105) (ligand)” has a chemotactic index of mouse leukocytes toward G glycoprotein with Fkn as antagonist (chemotactic index) [3] of 1.2 and an inhibition of mouse leukocyte chemotaxis toward G glycoprotein by Fkn [3] of 75%.

B1: anti-G glycoprotein monoclonal antibody 131-2G (antibody, from another filing, V domains shown)
VH: EVQLQQSGPELVKPGTSVKISCKASGYSFTGFTMNWVKQSHGKNLEWFGLINPFNGNTGYNQKFKGKATLTVDKSSSTAFMELLSLTSEDSAVYYCARSGKSYDYEAWFTYWGQGTLVTVSA
VL: DIVMTQTTLSLPVSLGNQASISCRSSQTIVHTNGNTYLEWYLQKPGQSPKLLIYKVSNRFSGVPDRFSGSGSGTDFILNISRVEAEDLGVYYCFQGSHVPFTFGSGTKLEIKR
Work on B1 yielded a percent inhibition [4] of 80 to 88%, a percent inhibition [5] of 32 to 48% and a chemotactic index of mouse leukocytes toward G glycoprotein with anti-G glycoprotein (131-2G) (chemotactic index) [6] of 1.1. The chemotactic index of mouse leukocytes toward Fkn with anti-G glycoprotein (131-2G) (chemotactic index) [7] was 4.8 and the percent positive staining of GHIS in the presence of the antibody [8] was 10%.

B2: human fractalkine (R&D Diagnostics) (ligand, UniProt P78423 25-100, looked up)
chain: QHHGVTKCNITCSKMTSKIPVALLIHYQQNQASCGKRAIILETRQHRLFCADPKEQWVKDAMQHLDRQAAALTRNG
notes: also called Fkn; human Fkn
Molecule B2 has a Kd [9] of 5.8 nM.

B3: G glycoprotein peptide RT33 (peptide)
peptide: TCWAICKRIPNK
notes: synthetic 12-mer with the CX3C motif CWAIC
For B3, the “percent positive staining of G glycoprotein in the presence of the peptide” value (“percent positive staining … of the peptide” below) [10] was 48%.

B4: RSV G glycoprotein, purified from RSV/A2-infected Vero cells (ligand, respiratory syncytial virus, A2 strain, UniProt P03423 1-298, looked up)
chain: MSKNKDQRTAKTLERTWDTLNHLLFISSCLYKLNLKSVAQITLSILAMIISTSLIIAAIIFIASANHKVTPTTAIIQDATSQIKNTTPTYLTQNPQLGISPSNPSEITSQITTILASTTPGVKSTLQSTTVKTKNTTTTQTQPSKPTTKQRQNKPPSKPNNDFHFEVFNFVPCSICSNNPTCWAICKRIPNKKPGKKTTTKPTKKPTLKTTKKDPKPQTTKSKEVPTTKPTEEPTINTTKTNIITTLLTSNTTGNPELTSQMETFHSTSSEGNPSPSQVSTTSEYPSQPSSPPNTPRQ
notes: Lectin and Q-Sepharose purified; concentration estimated with a molecular weight of 90 kD; also called attachment protein
Molecule B4 has a Kd [11] of 2.1 nM.

B5: G glycoprotein peptide RT34 (peptide)
peptide: NKKPGKKTTTKP
notes: synthetic 12-mer C-terminal to the CX3C motif
For B5, the “percent positive staining … of the peptide” value [10] was 74%.

B6: G glycoprotein peptide RT32 (peptide)
peptide: VPCSICSNNPTC
notes: synthetic 12-mer, lacks the CX3C motif
For B6, the “percent positive staining … of the peptide” value [10] was 72%.

B7: G glycoprotein peptide ?-1, 11-mer variant of RT33 with a deletion of ILE in the CX3C motif (peptide)
peptide: TCWACKRIPNK
For B7, the “percent positive staining … of the peptide” value [10] was 73%.

B8: G glycoprotein peptide EYp1, TCAAACKRIPNKK (SEQ ID NO: 5) (peptide)
peptide: TCAAACKRIPNKK
notes: 13-mer variant of RT33 with the motif CAAAC
With B8 the percent inhibition [12] was over 90%.

B9: peptide TCMAACKRIPNKK (SEQ ID NO: 10) (peptide)
peptide: TCMAACKRIPNKK
Work on B9 yielded a percent inhibition [12] of over 90%.

B10: peptide TCWAACKRIPNKK (SEQ ID NO: 6) (peptide)
peptide: TCWAACKRIPNKK
In the case of B10, the percent inhibition [12] is reported as over 90%.

B11: peptide TCNAACKRIPNKK (SEQ ID NO: 7) (peptide)
peptide: TCNAACKRIPNKK
Molecule B11 has a percent inhibition [12] of over 90%.

B12: peptide TCDAACKRIPNKK (SEQ ID NO: 8) (peptide)
peptide: TCDAACKRIPNKK
For B12, the percent inhibition [12] was over 90%.

B13: peptide TCFAACKRIPNKK (SEQ ID NO: 11) (peptide)
peptide: TCFAACKRIPNKK
In the case of B13, the percent inhibition [12] is reported as over 90%.
